The results in this text go back to US20020142009A1.

Data set [1] deals with rhC5a (human (printed as rhC5a)) (UniProt P01031). Nature of the data set: cell-based or functional assay.
Data set [2] deals with T1, rhC5a, P01031.
T1 chain: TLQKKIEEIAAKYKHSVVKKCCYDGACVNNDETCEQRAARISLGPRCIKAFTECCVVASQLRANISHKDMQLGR

Numbering of substitutions follows the chain as printed. Where only a bound is given, the exact number is not on record here.

In data set [1], “SCPA6, streptococcal C5a peptidase of group A Streptococcus serotype M6 strain UAB200, as made by the bacteria (enzyme)” yielded a Percent inhibition of C5a induced PMN adherence of 58.8%.

Molecule “SCPA49, streptococcal C5a peptidase of group A Streptococcus serotype M49 strain CS101, as made by the bacteria (from UniProt P58099 2-1181) (enzyme)” showed a Percent inhibition of C5a induced PMN adherence in data set [1] of 54.5%.

B1: ΔSCPA49 (truncated recombinant SCPA49, Thr63 through His1031) (protein)
chain: TKTPQTPDDAEETVADDANDLAPQAPAKTPDTSATSKATIRDLNDPSQVKTLQEKAGKGAGTVVAVIDAGFDKNHEAWRLTDKAKARYQSKEDLEKAKKEHGITYGEWVNDKVAYYHDYSKDGKTAVDQEHGTHVSGILSGNAPSETKEPYRLEGAMPEAQLLLMRVEIVNGLADYARNYAQAIRDAVNLGAKVINMSFGNAALAYANLPDETKKPFVYAKSKGVRIVTTAGNDSSFGGKTRLPLADHPDYGVVGTPAAADSTLTVASYSPDNQLTETAMVKTDDQQDKEMPVLSTNRFEPNKAYDYAYANRGMKEDDFKDVKGKIALIERSDIDFTDKIANAKKAGAVGVLIYDNQDKGFPIELPNVDQMPAAFISRKDGLLLKDNSQKTITFNATPKVLPTASGTKLSRFSSWGLTADGNIKPDIAAPGQDILSSAANNKYAKLSGTSMSAPLVAVIMGLLQKQYETQYPDMTQSERLDLAKKVLMSSATALYDEDEKAYFSPRQQGAGAVDAKKASEATMYVTDKDNTSSKVHLNNVSDKFEVTVTVHNKSDKPHELYYQATVQTDKVDGKHFALAPKALIETSWQKITIPANSSKQVTIPIDISQFSKDLLAQMKNGYFLEGFVRIKQDPTKEELMSIPYIGFRGDFGNLSALEKPLYDSKDGSSYYHEEISDAKDQLDGDGLQFYALKNDFTALTTESNPWTIINVVKEGVENIEDIESSEITETIFAGTFAKQDDDRHYYIHRHANGKPYAAISPNGDGNRDYVQFHGTFLRNAKNLVAEVLDKEGNVVWTSEVTEQVVKNYNNDLASTLGSTRFEISRWDGKDKDAKVVANGTYTYRVRYTPISSGAKEQHTDFDVIVDNTTPEVATSATFSTEDRRLTLASKPQTSQPVYRERIAYTYMDEDLPTTEYISPNEDGTFTLPEEAETMEGATVPLKMSDFTYVVEDMAGNITYTPVTKLLEGH
In the case of B1, the “peptidase activity, PMN adherence assay” value in data set [2] is reported as “lacked peptidase activity”.

B2: recombinant wild-type SCPA49 (Asn32 through His1139) (protein)
chain: NTVTEDTPATEQAVETPQPTTVSEEVPSSKETKTPQTPDDAEETVADDANDLAPQAPAKTPDTSATSKATIRDLNDPSQVKTLQEKAGKGAGTVVAVIDAGFDKNHEAWRLTDKAKARYQSKEDLEKAKKEHGITYGEWVNDKVAYYHDYSKDGKTAVDQEHGTHVSGILSGNAPSETKEPYRLEGAMPEAQLLLMRVEIVNGLADYARNYAQAIRDAVNLGAKVINMSFGNAALAYANLPDETKKPFVYAKSKGVRIVTTAGNDSSFGGKTRLPLADHPDYGVVGTPAAADSTLTVASYSPDNQLTETAMVKTDDQQDKEMPVLSTNRFEPNKAYDYAYANRGMKEDDFKDVKGKIALIERSDIDFTDKIANAKKAGAVGVLIYDNQDKGFPIELPNVDQMPAAFISRKDGLLLKDNSQKTITFNATPKVLPTASGTKLSRFSSWGLTADGNIKPDIAAPGQDILSSAANNKYAKLSGTSMSAPLVAVIMGLLQKQYETQYPDMTQSERLDLAKKVLMSSATALYDEDEKAYFSPRQQGAGAVDAKKASEATMYVTDKDNTSSKVHLNNVSDKFEVTVTVHNKSDKPHELYYQATVQTDKVDGKHFALAPKALIETSWQKITIPANSSKQVTIPIDISQFSKDLLAQMKNGYFLEGFVRIKQDPTKEELMSIPYIGFRGDFGNLSALEKPLYDSKDGSSYYHEEISDAKDQLDGDGLQFYALKNDFTALTTESNPWTIINVVKEGVENIEDIESSEITETIFAGTFAKQDDDRHYYIHRHANGKPYAAISPNGDGNRDYVQFHGTFLRNAKNLVAEVLDKEGNVVWTSEVTEQVVKNYNNDLASTLGSTRFEISRWDGKDKDAKVVANGTYTYRVRYTPISSGAKEQHTDFDVIVDNTTPEVATSATFSTEDRRLTLASKPQTSQPVYRERIAYTYMDEDLPTTEYISPNEDGTFTLPEEAETMEGATVPLKMSDFTYVVEDMAGNITYTPVTKLLEGHSNKPEQDGSDQAPDKKPETKPEQDGSDQAPDKKPETKPGQDGSGQTPDKKPETKPEKDSSGQTPGKTPQKGQPSRTLEKRSSKRALATKASTRDQLPTTNDKDTNRLH
The molecule B2 displayed an Activity (U/mg*10^-3), PMN adherence assay in data set [2] of 170 U/mg·10^-3.

B3: SCPA49N295A (protein)
chain: B2 chain with N264A
The molecule B3 registered an Activity (U/mg*10^-3), PMN adherence assay in data set [2] of less than 20 U/mg·10^-3.

B4: SCPA49S512A (protein)
chain: B2 chain with S481A
Turning to B4, the Activity (U/mg*10^-3), PMN adherence assay in data set [2] is less than 20 U/mg·10^-3.

B5: SCPA49D130A (protein)
chain: B2 chain with D99A
The molecule B5 registered an Activity (U/mg*10^-3), PMN adherence assay in data set [2] of less than 20 U/mg·10^-3.
